The target in data set [1] is p75NTR death domain (Homo sapiens) (UniProt P08138). The experiment in a line: homo-FRET. Particulars: cited from earlier work.
Data set [2] deals with the molecule itself. Description: cross-linking; spontaneous disulfide formation of purified protein in DMPC/CHAPS q = 1 bicelles, LPR 1,000:1 (repeated at 200:1), without reducing agent, room temperature; non-reducing SDS-PAGE at several time points; irreversible second-order kinetics.

Consider 2 molecules from PMC7427093, “Revising the mechanism of p75NTR activation: intrinsically monomeric state of death domains invokes the "helper" hypothesis” (Scientific Reports, 2020).

Values joined by “and” are separate entries in the source; they are usually repeats but may differ in a detail not shown here. Equal entries are not always repeated.

Broadly, the Kd is the free concentration of one partner at which half of the binding sites on the other are occupied at equilibrium, for simple one-to-one binding. For orientation: stoichiometry N means a count of units in the complex or per binding partner.

Regarding “p75NTR death domain (from UniProt P08138)”, the Kd in data set [1] is 49 µM.

B1: rP75-ΔECD-3CX-249C: rat p75NTR residues 245-425 with T249C, C279S, C379S, C416S (domain or fragment, UniProt P07174 245-425, looked up)
chain: TRGTCDNLIPVYCSILAAVVVGLVAYIAFKRWNSSKQNKQGANSRPVNQTPPPEGEKLHSDSGISVDSQSLHDQQTHTQTASGQALKGDGNLYSSLPLTKREEVEKLLNGDTWRHLAGELGYQPEHIDSFTHEASPVRALLASWGAQDSATLDALLAALRRIQRADIVESLSSESTATSPV
notes: p75 neurotrophin receptor (p75NTR), rat, UniProt P07174, residues 245-425 (transmembrane and intracellular domains); also called T249C mutant; p75-ΔECD-T249C; source: also in the membrane fraction of E. coli, not purified
As to B1, the “stoichiometry N” value in data set [2] is 2 and 4 and 6.
